For 31 molecules, optical density results are on record in US20210380703A1 (RIGEL PHARMACEUTICALS, published 2021).

To fix the notation:
B1: 365_H06 (antibody, V domains shown)
VH: EVQLLESGGGLVQPGGSLRLSCAASGFTFSSYGMNWVRQAPGKGLEWVSGINYNSGYTGYADSVKGRFTISRDNSKNTLYLQMNSLRAEDTAVYYCARSANWHDTALDYWGQGTLVTVSS
VL: DIQMTQSPSSLSASVGDRVTITCRASQSISSYVNWYQQKPGKAPKLLIYAATSRASGVPSRFSGSGSGTDFTLTISSLQPEDFATYYCQQSYSTPLTFGGGTKVEIK
notes: VH/VL only
B2: 366_F04 (antibody, V domains shown)
VH: B1 VH with S31D, S55G, G59S
VL: B1 VL with S30L, L47V, A51T, A55H, S93E, T94S
notes: VH/VL only
B3: 367_B07 (antibody, V domains shown)
VH: B1 VH with S31D, G33S, S49A, A106H
VL: B1 VL with S30I, R54L, S93N, T94L
notes: VH/VL only
B4: 366_H06 (antibody, V domains shown)
VH: B1 VH with G50S, S55G
VL: B1 VL with S30L, V33L, A51T, S93D
notes: VH/VL only
B5: 366_B08 (antibody, V domains shown)
VH: B1 VH with S30D, G50N, S55G, T58K, A106H
VL: B1 VL with S30V, V33L, A55H, S93D, T94N
notes: VH/VL only
B6: 367_A02 (antibody, V domains shown)
VH: B1 VH with S30D, G50S, T58K, S99G, N101T, A106H
VL: B1 VL with S30I, V33L, A51V, S93D
notes: VH/VL only
B7: 367_B08 (antibody, V domains shown)
VH: B1 VH with S31D, S55G, T58K
VL: B1 VL with S30L, S31T, V33L, L47V, S93D, T94N
notes: VH/VL only
B8: 365_H10 (antibody, V domains shown)
VH: B1 VH with S30D, S49A, T58K, G59S, A106H
VL: B1 VL with S30V, S31T, L47V, R54L, S93N
notes: VH/VL only
B9: 367_D05 (antibody, V domains shown)
VH: B1 VH with S31D, G33S, G50S, S55G, T58K, G59S, S99G, N101T, A106H
VL: B1 VL with S30I, L47V, R54L, S93D, T94S
notes: VH/VL only
B10: 367_E12 (antibody, V domains shown)
VH: B1 VH with N35H, S49A, G50S, S55G, G59S, S99G, N101T, A106H
VL: B1 VL with S30L, S31T, T52S, R54L, A55Q, S93N, T94S
notes: VH/VL only
B11: 367_A05 (antibody, V domains shown)
VH: B1 VH with S31D, G50S, S55G, T58K
VL: B1 VL with S30L, V33L, L47V, A51V, S93D, T94S
notes: VH/VL only
B12: 366_G09 (antibody, V domains shown)
VH: B1 VH with S30D, S31D, G33S, S49A, G50S, S99G, N101T, A106H
VL: B1 VL with S30L, L47V, S93D, T94L
notes: VH/VL only
B13: 366_B12 (antibody, V domains shown)
VH: B1 VH with G33S, S49A, T58K
VL: B1 VL with S30L, S31T, S93D, T94N
notes: VH/VL only
B14: 366_D04 (antibody, V domains shown)
VH: B1 VH with G33S, S55G, G59S
VL: B1 VL with A51T, S93E
notes: VH/VL only
B15: 367_D09 (antibody, V domains shown)
VH: B1 VH with S30D, S49A, G50S, S55G, T58K, G59S, S99G, N101T, A106H
VL: B1 VL with S30L, S31T, V33L, R54L, S93D, T94N
notes: VH/VL only
B16: 366_F08 (antibody, V domains shown)
VH: B1 VH with G50S, S55G, G59S, S99G, N101T, A106H
VL: not shown
notes: VH/VL only
B17: 365_H11 (antibody, V domains shown)
VH: B1 VH with G33S
VL: B1 VL with S30L, S31T, V33L, S93D, T94S
notes: VH/VL only
B18: 365_H12 (antibody, V domains shown)
VH: B1 VH with G33S, G50N, S55G, T58K, G59S, A106H
VL: B1 VL with S30I, S31T
notes: VH/VL only
B19: 367_F09 (antibody, V domains shown)
VH: B1 VH with S30D, G33S, N35H, S49A, S55G, G59S, S99G, N101T, A106H
VL: B1 VL with S30L, S31T, V33L, R54L, Y92D, T94N
notes: VH/VL only
B20: 366_F05 (antibody, V domains shown)
VH: B1 VH with G33S, S49A, G50N, T58K, G59S, A106H
VL: B1 VL with S30L, S31T, V33L, Y92D, S93N
notes: VH/VL only
B21: 367_H05 (antibody, V domains shown)
VH: B1 VH with N35H, S49A, G50S, T58K, G59S, S99G, N101T, A106H
VL: not shown
notes: VH/VL only
B22: 366_B10 (antibody, V domains shown)
VH: B1 VH with G59S
VL: B1 VL with S30I, V33L, S93D, T94N
notes: VH/VL only
B23: 366_H08 (antibody, V domains shown)
VH: B1 VH with S31D, S49A, G50S, G59S, A106H
VL: B1 VL with S30L, A55H, S93N, T94N
notes: VH/VL only
B24: 367_B03 (antibody, V domains shown)
VH: B1 VH with S49A, S55G, T58K, G59S
VL: B1 VL with S30L, S31T, V33L, R54L, S93N, T94L
notes: VH/VL only
B25: 366_D08 (antibody, V domains shown)
VH: B1 VH with N35H, G50N, S55G, T58K, G59S, S99G, N101T, A106H
VL: B1 VL with S30L, L47V, R54L, S93E, T94N
notes: VH/VL only
B26: 367_A04 (antibody, V domains shown)
VH: B1 VH with G33S, G50N, T58K, G59S
VL: B1 VL with S30I, S31T, V33L, Y92D, S93D, T94S
notes: VH/VL only
B27: 367_E07 (antibody, V domains shown)
VH: B1 VH with S31D, G33S, G50S, S55G, T58K, S99G, N101T, A106H
VL: B1 VL with S30L, L47V, S93E, T94N
notes: VH/VL only
B28: 367_C08 (antibody, V domains shown)
VH: B1 VH with S30D, G33S, N35H, S49A, S55G, G59S, S99G, N101T, A106H
VL: B1 VL with S30L, S31T, V33L, R54L, Y92D, T94N
notes: VH/VL only
B29: 367_B06 (antibody, V domains shown)
VH: B1 VH with G33S, S49A, G50N, S55G, S99G, N101T, A106H
VL: B1 VL with S30I, L47V, R54L, A55H, S93N, T94S
notes: VH/VL only
B30: 366_G04 (antibody, V domains shown)
VH: B1 VH with G33S, G59S
VL: B1 VL with S30I, S31T, V33L, Y92D, S93D
notes: VH/VL only
B31: 366_F07 (antibody, V domains shown)
VH: B1 VH with S31D, G33S, S49A, G59S, A106H
VL: B1 VL with S30I, S31T, V33L, S93E
notes: VH/VL only

Positions count from the first letter of the chain named.
Note: test concentration or dose not given here.

Mouse ACVR2A, sequence (P27038 20-135 limits assumed): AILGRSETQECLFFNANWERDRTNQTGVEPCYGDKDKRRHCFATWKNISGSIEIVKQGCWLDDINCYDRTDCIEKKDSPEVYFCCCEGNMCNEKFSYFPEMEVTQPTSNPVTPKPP

One assay concerns the target T1, Goat anti-Human Kappa.
T1 construct: Positive control; also called biotinylated goat anti-human kappa light chain
The assay is described as follows: ELISA; positive control. The protocol: (§1) The binding of ACVR2A-specific monoclonal antibodies to human ACVR2A, mouse ACVR2A, biotinylated goat anti-human kappa light chain (positive control) and human Fc (negative control) were determined by ELISA.
(In general: In an ELISA, binding on a coated surface is turned into a signal by an enzyme label.)
On to B1, for which the optical density stood at 3.44 OD.

Regarding B2, the optical density turned out to be 3.37 OD.

Take B3: the optical density is 3.34 OD.

Take B4: the optical density was determined as 3.39 OD.

Consider B5, for which the optical density is 3.05 OD.

For the molecule B6, the optical density is 3.58 OD.

B7 came in with an optical density of 3.03 OD.

In turn, B8 showed an optical density of 3.51 OD.

In turn, B9 had an optical density of 3.34 OD.

In turn, B10 yielded an optical density of 3.71 OD.

In turn, B11 had an optical density of 3.38 OD.

On to B12, for which the optical density turned out to be 3.44 OD.

B13 had an optical density of 3.44 OD.

In turn, B14 registered an optical density of 3.46 OD.

As for B15, the optical density came to 3.37 OD.

B16 gave an optical density of 3.47 OD.

In turn, B17 came in with an optical density of 3.61 OD.

Turning to B18, the optical density was found to be 3.78 OD.

On to B19, for which the optical density is 3.46 OD.

Take B20: the optical density was 3.25 OD.

B21 showed an optical density of 3.59 OD.

On to B22, for which the optical density stood at 3.06 OD.

On to B23, for which the optical density is 3.55 OD.

Turning to B24, the optical density was 3.44 OD.

B25 gave an optical density of 3.65 OD.

In turn, B26 displayed an optical density of 3.3 OD.

With B27, the optical density is 3.21 OD.

Consider B28, for which the optical density is 3.05 OD.

In turn, B29 yielded an optical density of 3.02 OD.

Molecule B30 had an optical density of 3.29 OD.

As to B31, the optical density came out at 3.47 OD.

A further assay concerns the target Mouse ACVR2A (mouse, UniProt P27038 20-135, limits assumed). The assay is described as follows: ELISA. The protocol:
as §1
B1 had an optical density of 2.46 OD.

For the molecule B2, the optical density is 1.91 OD.

The molecule B3 had an optical density of 1.49 OD.

Regarding B4, the optical density turned out to be 2.59 OD.

Molecule B5 gave an optical density of 2.38 OD.

In turn, B6 displayed an optical density of 2.42 OD.

With B7, the optical density turned out to be 2.25 OD.

Take B8: the optical density is 2.82 OD.

Consider B9, for which the optical density was 1.37 OD.

In turn, B10 came in with an optical density of 2.91 OD.

B11 showed an optical density of 2.38 OD.

B12 came in with an optical density of 2.04 OD.

With B13, the optical density stood at 2.99 OD.

B14 came in with an optical density of 2.12 OD.

Molecule B15 registered an optical density of 2.04 OD.

In the case of B16, the optical density came out at 2 OD.

In the case of B17, the optical density came to 3.35 OD.

B18 registered an optical density of 2.91 OD.

Molecule B19 displayed an optical density of 1.82 OD.

B20 came in with an optical density of 2.67 OD.

As for B21, the optical density worked out at 2.7 OD.

In the case of B22, the optical density was 2.44 OD.

B23 returned an optical density of 2.77 OD.

The molecule B24 registered an optical density of 2.66 OD.

Regarding B25, the optical density came to 2.46 OD.

In the case of B26, the optical density was found to be 2.2 OD.

Regarding B27, the optical density worked out at 2.06 OD.

In turn, B28 came in with an optical density of 1.22 OD.

B29 came in with an optical density of 1.89 OD.

Molecule B30 showed an optical density of 2.18 OD.

Turning to B31, the optical density was 2.53 OD.

A further assay deals with T2, Human ACVR2A (human, UniProt P27037 20-135, limits assumed).
T2 construct: also called activin receptor, type II A
T2 sequence (P27037 20-135 limits assumed): as the sequence (P27038 20-135 limits assumed) above, with R20K, I73V counted along it
Nature of the assay: ELISA. The protocol: as §1
B1: the optical density was determined as 2.24 OD.

With B2, the optical density turned out to be 1.73 OD.

For B3, the optical density worked out at 1.42 OD.

B4 showed an optical density of 2.29 OD.

As to B5, the optical density was 2.15 OD.

On to B6, for which the optical density was 2.23 OD.

In turn, B7 showed an optical density of 2.13 OD.

The molecule B8 gave an optical density of 2.68 OD.

B9 registered an optical density of 1.26 OD.

Molecule B10 gave an optical density of 2.69 OD.

In the case of B11, the optical density worked out at 2.22 OD.

The molecule B12 yielded an optical density of 1.85 OD.

Molecule B13 had an optical density of 3.24 OD.

B14 yielded an optical density of 2.08 OD.

B15 showed an optical density of 2.15 OD.

As for B16, the optical density amounted to 1.86 OD.

Turning to B17, the optical density is 3.24 OD.

Consider B18, for which the optical density stood at 2.97 OD.

B19 gave an optical density of 1.79 OD.

On to B20, for which the optical density worked out at 2.19 OD.

On to B21, for which the optical density came to 2.44 OD.

B22 yielded an optical density of 2.33 OD.

On to B23, for which the optical density was determined as 2.59 OD.

Consider B24, for which the optical density is 2.48 OD.

The molecule B25 registered an optical density of 2.17 OD.

In turn, B26 returned an optical density of 2.14 OD.

For the molecule B27, the optical density amounted to 1.94 OD.

The molecule B28 yielded an optical density of 1.12 OD.

For the molecule B29, the optical density came to 1.82 OD.

B30: the optical density is 1.85 OD.

B31 registered an optical density of 2.39 OD.
